Source: PMC6404975

Tests used:
glucagon = glucagon (UniProt P01275 53-81); assay: electrochemical aptamer-based sensor
[1] = target: insulin (bovine pancreas) (Bos taurus, UniProt P01317;P01317 25-54;85-105); assay: electrochemical aptamer-based sensor
Chain of insulin (bovine pancreas) (P01317 25-54, chain 1 of 2): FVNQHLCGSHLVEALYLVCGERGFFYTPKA
Chain of insulin (bovine pancreas) (P01317 85-105, chain 2 of 2): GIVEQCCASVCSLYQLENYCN

Chain of glucagon (P01275 53-81): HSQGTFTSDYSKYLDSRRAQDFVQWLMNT

Binder: AAAAGGTGGTGGGGGGGGTTGGTAGGGTGTCTTCT (structured_DNA, 5' thiol-C6 (immobilised on gold); 3' methylene blue) [Insulin-End (IGA3)]
- binding result (glucagon): no binding
- Kd [1]: 240 ± 65 nM
